Substitutions are numbered along the chain they refer to. Names may count otherwise.

The results in this text go back to PMC8106667 (Molecular cell, 2021).

B1: MBP-ORC1 R105Q, R720Q (natural protein, human, UniProt Q13415 1-861, looked up)
chain: MAHYPTRLKTRKTYSWVGRPLLDRKLHYQTYREMCVKTEGCSTEIHIQIGQFVLIEGDDDENPYVAKLLELFEDDSDPPPKKRARVQWFVRFCEVPACKRHLLGQKPGAQEIFWYDYPACDSNINAETIIGLVRVIPLAPKDVVPTNLKNEKTLFVKLSWNEKKFRPLSSELFAELNKPQESAAKCQKPVRAKSKSAESPSWTPAEHVAKRIESRHSASKSRQTPTHPLTPRARKRLELGNLGNPQMSQQTSCASLDSPGRIKRKVAFSEITSPSKRSQPDKLQTLSPALKAPEKTRETGLSYTEDDKKASPEHRIILRTRIAASKTIDIREERTLTPISGGQRSSVVPSVILKPENIKKRDAKEAKAQNEATSTPHRIRRKSSVLTMNRIRQQLRFLGNSKSDQEEKEILPAAEISDSSSDEEEASTPPLPRRAPRTVSRNLRSSLKSSLHTLTKVPKKSLKPRTPRCAAPQIRSRSLAAQEPASVLEEARLRLHVSAVPESLPCREQEFQDIYNFVESKLLDHTGGCMYISGVPGTGKTATVHEVIRCLQQAAQANDVPPFQYIEVNGMKLTEPHQVYVQILQKLTGQKATANHAAELLAKQFCTRGSPQETTVLLVDELDLLWTHKQDIMYNLFDWPTHKEARLVVLAIANTMDLPERIMMNRVSSRLGLTRMCFQPYTYSQLQQILRSRLKHLKAFEDDAIQLVARKVAALSGDAQRCLDICRRATEICEFSQQKPDSPGLVTIAHSMEAVDEMFSSSYITAIKNSSVLEQSFLRAILAEFRRSGLEEATFQQIYSQHVALCRMEGLPYPTMSETMAVCSHLGSCRLLLVEPSRNDLLLRVRLNVSQDDVLYALKDE
B2: MBP-ORC1 R105Q (natural protein, human, UniProt Q13415 1-861, looked up)
chain: B1 chain with Q720R
B3: MBP-ORC1^235ARA^237 (MBP-ORC1 A-A), full length (natural protein, human, UniProt Q13415 1-861, looked up)
chain: B1 chain with Q105R, K235A, L237A, Q720R
B4: MBP-ORC1 R720Q (natural protein, human, UniProt Q13415 1-861, looked up)
chain: B1 chain with Q105R
B5: GST-CDC6-HIS6 (natural protein, human, UniProt Q99741 1-560, looked up)
chain: MPQTRSQAQATISFPKRKLSRALNKAKNSSDAKLEPTNVQTVTCSPRVKALPLSPRKRLGDDNLCNTPHLPPCSPPKQGKKENGPPHSHTLKGRRLVFDNQLTIKSPSKRELAKVHQNKILSSVRKSQEITTNSEQRCPLKKESACVRLFKQEGTCYQQAKLVLNTAVPDRLPAREREMDVIRNFLREHICGKKAGSLYLSGAPGTGKTACLSRILQDLKKELKGFKTIMLNCMSLRTAQAVFPAIAQEICQEEVSRPAGKDMMRKLEKHMTAEKGPMIVLVLDEMDQLDSKGQDVLYTLFEWPWLSNSHLVLIGIANTLDLTDRILPRLQAREKCKPQLLNFPPYTRNQIVTILQDRLNQVSRDQVLDNAAVQFCARKVSAVSGDVRKALDVCRRAIEIVESDVKSQTILKPLSECKSPSEPLIPKRVGLIHISQVISEVDGNRMTLSQEGAQDSFPLQQKILVCSLMLLIRQLKIKEVTLGKLYEAYSKVCRKQQVAAVDQSECLSLSGLLEARGILGLKRNKETRLTKVFFKIEEKEIEHALKDKALIGNILATGLP
B6: MBP-CDC6-HIS6 (natural protein, human, UniProt Q99741 1-560, looked up)
chain: B5 chain
B7: MBP-ORC1 180–240 (domain or fragment, human, UniProt Q13415 180-240, looked up)
chain: QESAAKCQKPVRAKSKSAESPSWTPAEHVAKRIESRHSASKSRQTPTHPLTPRARKRLELG
B8: MBP-ORC1 100–250 wild type (domain or fragment, human, UniProt Q13415 100-250, looked up)
chain: RHLLGRKPGAQEIFWYDYPACDSNINAETIIGLVRVIPLAPKDVVPTNLKNEKTLFVKLSWNEKKFRPLSSELFAELNKPQESAAKCQKPVRAKSKSAESPSWTPAEHVAKRIESRHSASKSRQTPTHPLTPRARKRLELGNLGNPQMSQQ
B9: MBP-ORC1 100–250 L237A (domain or fragment, human, UniProt Q13415 100-250, looked up)
chain: B8 chain with L138A

The target of the first test is T1, MBP-GFP-ORC1 wild type, full length (human, UniProt Q13415 1-861).
T1 sequence (looked up): B1 chain with Q105R, Q720R
As to the kind of experiment: pull-down.
Regarding B1, the binding result is recorded as “binds”. Same read-out and setting: as for B2, the entry is “binds”; as for B3, “binds”; as for B4, “binds”.

The next test addresses T2, MBP-GFP-ORC1-HIS6 (human, UniProt Q13415 1-861).
T2 sequence (looked up): B1 chain with Q105R, Q720R
As to the kind of experiment: pull-down.
Take B5: the binding result is listed as “binds”. Turning to B6, the binding result is listed as “binds”.

A further test concerns the target T3, GST-CDC6 wild type, full length (human, UniProt Q99741 1-560).
T3 sequence (looked up): B5 chain
As to the kind of experiment: pull-down.
For B7, the binding result is recorded as “binds”. Same read-out and setting: as for B8, the entry is “binds”. Still for that read-out and setting: the entry for B9 is “binds”.
